Results reported in patent US20090297520A1.
Like-named read-outs stand apart in the source and are kept apart here. Ends that are not written are not given here.

What was measured:
Experiment in all cases: cell-based or functional assay
human Kv1.1 (human) = human Kv1.1 (human) (UniProt Q09470)
human Kv1.3 (human) [1] = target: human Kv1.3 (human) (UniProt P22001)
human Kv1.3 (human) [2] = target: human Kv1.3 (human) (UniProt P22001); remark: listed apart in the source

Sequence of human Kv1.1 (human) (Q09470 whole entry): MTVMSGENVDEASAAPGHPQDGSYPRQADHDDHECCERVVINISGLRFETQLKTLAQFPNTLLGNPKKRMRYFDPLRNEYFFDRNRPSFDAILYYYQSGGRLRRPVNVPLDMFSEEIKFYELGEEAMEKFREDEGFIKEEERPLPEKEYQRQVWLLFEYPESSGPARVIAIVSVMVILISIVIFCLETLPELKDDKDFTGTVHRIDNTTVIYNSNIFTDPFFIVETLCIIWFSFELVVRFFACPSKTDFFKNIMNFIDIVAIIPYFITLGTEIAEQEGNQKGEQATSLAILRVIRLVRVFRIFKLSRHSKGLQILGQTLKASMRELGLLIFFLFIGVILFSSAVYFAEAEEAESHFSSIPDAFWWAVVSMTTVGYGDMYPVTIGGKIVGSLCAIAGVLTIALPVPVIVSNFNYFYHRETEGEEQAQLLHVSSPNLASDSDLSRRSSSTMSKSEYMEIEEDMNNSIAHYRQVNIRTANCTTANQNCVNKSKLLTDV
Sequence of human Kv1.3 (human) (P22001 whole entry): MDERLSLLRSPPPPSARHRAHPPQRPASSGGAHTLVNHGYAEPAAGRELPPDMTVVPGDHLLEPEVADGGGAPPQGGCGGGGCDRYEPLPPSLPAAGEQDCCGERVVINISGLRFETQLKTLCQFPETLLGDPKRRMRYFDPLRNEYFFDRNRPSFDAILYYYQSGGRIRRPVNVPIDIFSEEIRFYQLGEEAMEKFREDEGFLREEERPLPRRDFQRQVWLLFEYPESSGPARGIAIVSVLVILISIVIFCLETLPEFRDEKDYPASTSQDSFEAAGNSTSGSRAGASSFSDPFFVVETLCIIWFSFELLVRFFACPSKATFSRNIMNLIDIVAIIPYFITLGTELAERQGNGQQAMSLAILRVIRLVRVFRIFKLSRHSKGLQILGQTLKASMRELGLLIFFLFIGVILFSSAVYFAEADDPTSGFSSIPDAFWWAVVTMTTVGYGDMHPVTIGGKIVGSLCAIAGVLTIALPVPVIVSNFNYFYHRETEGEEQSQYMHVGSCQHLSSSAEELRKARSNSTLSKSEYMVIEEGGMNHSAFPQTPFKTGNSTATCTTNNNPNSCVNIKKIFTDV

How did the hKv1.1: IC50 [pM], whole cell patch clamp (human Kv1.1 (human)) turn out when Fc-L10-OSK1 (Fc fusion) was run?
The hKv1.1: IC50 [pM], whole cell patch clamp was 41600 pM.

Which hKv1.1/hKv1.3 (ratio of IC50s, reference hKv1.3) (human Kv1.1 (human)) does the source give for Synthetic OSK1 (peptide) here?
Its hKv1.1/hKv1.3 (ratio of IC50s, reference hKv1.3) is 4.

And the hKv1.1: IC50 [pM], whole cell patch clamp (human Kv1.1 (human))?
The hKv1.1: IC50 [pM], whole cell patch clamp was 160 pM.

And the hKv1.3: IC50 [pM], whole cell patch clamp (human Kv1.3 (human) [1])?
Its hKv1.3: IC50 [pM], whole cell patch clamp is 39 pM.

“E. coli-derived Fc-L-ShK[1-35] (Fc fusion)” was tested. Which Kv1.3 IC50 by WCVC (nM), whole cell patch clamp on HEK293/Kv1.3 cells (human Kv1.3 (human) [1]) did it give?
The Kv1.3 IC50 by WCVC (nM), whole cell patch clamp on HEK293/Kv1.3 cells was 1.4 nM.

How did the IC50, block of outward potassium current, whole cell patch clamp (human Kv1.3 (human) [1]) turn out when “Fc-L10-ShK[2-35] (CHO-derived, bivalent dimeric) (Fc fusion)” was run?
The IC50, block of outward potassium current, whole cell patch clamp was 0.115 nM.

How did the WB/IFNg (IC50, nM), human whole blood (human Kv1.3 (human) [1]) turn out when 20k PEG-ShK (peptide) was run?
Its WB/IFNg (IC50, nM), human whole blood is 0.065 nM.

And the WB/IL-2 (IC50, nM), human whole blood (human Kv1.3 (human) [1])?
The WB/IL-2 (IC50, nM), human whole blood was 0.046 nM.

With “E. coli-derived Fc-L-ShK[2-35] (Fc fusion)” as the molecule, how does the Kv1.3 IC50 by IWQ (nM), IonWorks planar patch clamp on CHO/Kv1.3 cells (human Kv1.3 (human) [1]) read?
Its Kv1.3 IC50 by IWQ (nM), IonWorks planar patch clamp on CHO/Kv1.3 cells is 2.8 nM.

And the Kv1.3 IC50 by WCVC (nM), whole cell patch clamp on HEK293/Kv1.3 cells (human Kv1.3 (human) [1])?
The Kv1.3 IC50 by WCVC (nM), whole cell patch clamp on HEK293/Kv1.3 cells was 1.3 nM.

“Fc-L25-ShK[2-35] (CHO-derived, bivalent dimeric) (Fc fusion)” was tested. Which IC50, whole cell patch clamp on HEK293/Kv1.3 cells (human Kv1.3 (human) [1]) did it give?
The IC50, whole cell patch clamp on HEK293/Kv1.3 cells was 0.15 nM.

For GGGGS-Osk1 (peptide), which WB/IFNg (IC50, nM), human whole blood (human Kv1.3 (human) [1]) is on record?
Its WB/IFNg (IC50, nM), human whole blood is 2.2 nM.

What about the WB/IL-2 (IC50, nM), human whole blood (human Kv1.3 (human) [1]) of the same molecule?
Its WB/IL-2 (IC50, nM), human whole blood is 1.36 nM.

With “PEG-Fc-L10-SHK(2-35), pool 2 (Fc fusion)” as the molecule, how does the IC50 Sustained (nM), pool 2 (human Kv1.3 (human) [1]) read?
The IC50 Sustained (nM), pool 2 was 0.158 nM.

Which Kv1.3 IC50 by IWQ (nM), IonWorks planar patch clamp on CHO/Kv1.3 cells (human Kv1.3 (human) [1]) does the source give for “E. coli-derived ShK[2-35]-L-Fc (Fc fusion)” here?
The Kv1.3 IC50 by IWQ (nM), IonWorks planar patch clamp on CHO/Kv1.3 cells was 4.9 nM.

“E. coli-derived Shk[1-35]-L-Fc (Fc fusion)” was tested. Which Kv1.3 IC50 by IWQ (nM), IonWorks planar patch clamp on CHO/Kv1.3 cells (human Kv1.3 (human) [1]) did it give?
Its Kv1.3 IC50 by IWQ (nM), IonWorks planar patch clamp on CHO/Kv1.3 cells is 2.4 nM.

How did the IC50 Sustained (nM), pool 3 (human Kv1.3 (human) [1]) turn out when PEG-Fc-L10-OSK1, pool 3 (Fc fusion) was run?
Its IC50 Sustained (nM), pool 3 is 0.256 nM.

OSK1-K16, D20 (peptide) was tested. Which WB/IFNg (IC50, nM), human whole blood (human Kv1.3 (human) [1]) did it give?
The WB/IFNg (IC50, nM), human whole blood was 1.32 nM.

What about the WB/IL-2 (IC50, nM), human whole blood (human Kv1.3 (human) [1]) of the same molecule?
Its WB/IL-2 (IC50, nM), human whole blood is 1.58 nM.

For native OSK1 (peptide), which Kv1.1 (IC50, pM), whole cell patch clamp ePhys (human Kv1.1 (human)) is on record?
The Kv1.1 (IC50, pM), whole cell patch clamp ePhys was 202 pM.

And the Kv1.3 (IC50, pM), whole cell patch clamp ePhys (human Kv1.3 (human) [1])?
The Kv1.3 (IC50, pM), whole cell patch clamp ePhys was 39 pM.

What about the Kv1.3 Selectivity (=Kv1.1/Kv.3 IC50) (human Kv1.3 (human) [1]) of the same molecule?
Its Kv1.3 Selectivity (=Kv1.1/Kv.3 IC50) is 5 fold.

Which IC50 Sustained (nM), pool 2 (human Kv1.3 (human) [1]) does the source give for PEG-Fc-L10-OSK1, pool 2 (Fc fusion) here?
The IC50 Sustained (nM), pool 2 was 0.332 nM.

With PEG-OSK1 (peptide) as the molecule, how does the peak IC50, whole cell patch clamp (human Kv1.3 (human) [1]) read?
The peak IC50, whole cell patch clamp was 1.28 nM.

E. coli-derived Fc-L-OSK1 (Fc fusion) was tested. Which Kv1.3 IC50 by WCVC (nM), whole cell patch clamp on HEK293/Kv1.3 cells (human Kv1.3 (human) [1]) did it give?
Its Kv1.3 IC50 by WCVC (nM), whole cell patch clamp on HEK293/Kv1.3 cells is 3.2 nM.

With OSK1 (synthetic Osk1 toxin peptide) as the molecule, how does the IC50, block of outward potassium current, whole cell patch clamp (human Kv1.3 (human) [1]) read?
The IC50, block of outward potassium current, whole cell patch clamp was 0.039 nM.

For 20k PEG-OSK1[Ala29, 1Nal34] (peptide), which WB/IFNg (IC50, nM), human whole blood (human Kv1.3 (human) [1]) is on record?
Its WB/IFNg (IC50, nM), human whole blood is 0.081 nM.

And the WB/IL-2 (IC50, nM), human whole blood (human Kv1.3 (human) [1])?
Its WB/IL-2 (IC50, nM), human whole blood is 0.049 nM.

For “PEG-Fc-L10-SHK(2-35), pool 3 (Fc fusion)”, which IC50 Sustained (nM), pool 3 (human Kv1.3 (human) [1]) is on record?
Its IC50 Sustained (nM), pool 3 is 0.175 nM.

With “Fc-L5-ShK[2-35] (CHO-derived, bivalent dimeric) (Fc fusion)” as the molecule, how does the IC50, block of outward potassium current, whole cell patch clamp (human Kv1.3 (human) [1]) read?
Its IC50, block of outward potassium current, whole cell patch clamp is 0.1 nM.

Which peak IC50, whole cell patch clamp (human Kv1.3 (human) [2]) does the source give for RSCIDTIPKSRCTAFQCKHSMKYRLSFCRKTCGTC (not fully specified (N-terminus); ends and bridges not checked) [20K PEG-ShK[1-35]] here?
The peak IC50, whole cell patch clamp was 0.169 nM.

SCIDTIPKSRCTAFQCKHSMKYRLSFCRKTCGTC (not fully specified; ends and bridges not checked) [ShK[2-35] (synthetic peptide analog)] was tested. Which IC50, block of outward potassium current, whole cell patch clamp (human Kv1.3 (human) [2]) did it give?
Its IC50, block of outward potassium current, whole cell patch clamp is 0.049 nM.
